Measurements: patent US20260098102A1 (NATIONAL UNIVERSITY CORPORATION KOBE UNIVERSITY, published 2026)

Assays:
Experiment in all cases: cell-based ELISA, transfected 293α cells
[1] = target: T1, mouse SIRPA BALB/c (mouse (BALB/c), UniProt P97797 35-513)
T1 construct: FLAG-tagged (pFLAG V5-DEST), on 293α cells
T1 chain: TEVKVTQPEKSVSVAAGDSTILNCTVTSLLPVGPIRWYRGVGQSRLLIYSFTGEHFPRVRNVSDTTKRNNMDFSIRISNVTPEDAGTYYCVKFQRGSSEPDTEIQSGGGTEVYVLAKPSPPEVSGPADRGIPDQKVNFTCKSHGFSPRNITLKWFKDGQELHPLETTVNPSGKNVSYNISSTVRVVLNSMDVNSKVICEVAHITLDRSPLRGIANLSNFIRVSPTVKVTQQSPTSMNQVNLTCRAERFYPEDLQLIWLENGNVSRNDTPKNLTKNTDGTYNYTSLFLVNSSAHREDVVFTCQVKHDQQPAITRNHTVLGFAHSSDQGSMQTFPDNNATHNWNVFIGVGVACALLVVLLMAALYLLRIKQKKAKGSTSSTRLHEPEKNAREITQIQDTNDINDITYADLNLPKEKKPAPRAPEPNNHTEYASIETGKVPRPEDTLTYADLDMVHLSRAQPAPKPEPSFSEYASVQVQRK
Description: (§1) After the culture supernatant of 293α cells into which the pFLAG V5-DEST-monkey SIRPA or pFLAG V5-DEST-mouse SIRPA expression vector was introduced and the pFLAG V5-DEST-introduced 293α cells prepared in Example 1)-5-2 was removed, binding to monkey or mouse SIRPA was evaluated in the same manner as for the binding activity of human SIRPA.

[2] = target: T2, mouse SIRPA_C57BL/6 (mouse (C57BL/6), UniProt P97797 32-513)
T2 construct: FLAG-tagged (pFLAG V5-DEST), on 293α cells
T2 sequence: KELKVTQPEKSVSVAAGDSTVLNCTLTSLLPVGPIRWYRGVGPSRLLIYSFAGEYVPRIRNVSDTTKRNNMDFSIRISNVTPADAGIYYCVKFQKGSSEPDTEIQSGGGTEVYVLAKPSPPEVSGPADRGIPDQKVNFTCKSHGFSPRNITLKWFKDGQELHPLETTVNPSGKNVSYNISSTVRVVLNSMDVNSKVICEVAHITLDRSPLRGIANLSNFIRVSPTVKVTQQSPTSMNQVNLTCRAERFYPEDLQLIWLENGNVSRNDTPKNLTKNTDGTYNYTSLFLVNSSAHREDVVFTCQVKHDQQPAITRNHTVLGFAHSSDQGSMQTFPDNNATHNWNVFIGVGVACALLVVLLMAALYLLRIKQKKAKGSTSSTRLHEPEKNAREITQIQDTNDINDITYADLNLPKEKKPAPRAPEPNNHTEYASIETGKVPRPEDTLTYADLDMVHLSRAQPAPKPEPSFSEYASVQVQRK
Description: as §1

[3] = target: T3, mouse SIRPA_129 (mouse (129), UniProt P97797 32-513)
T3 construct: FLAG-tagged (pFLAG V5-DEST), on 293α cells; also called 129sv
T3 chain: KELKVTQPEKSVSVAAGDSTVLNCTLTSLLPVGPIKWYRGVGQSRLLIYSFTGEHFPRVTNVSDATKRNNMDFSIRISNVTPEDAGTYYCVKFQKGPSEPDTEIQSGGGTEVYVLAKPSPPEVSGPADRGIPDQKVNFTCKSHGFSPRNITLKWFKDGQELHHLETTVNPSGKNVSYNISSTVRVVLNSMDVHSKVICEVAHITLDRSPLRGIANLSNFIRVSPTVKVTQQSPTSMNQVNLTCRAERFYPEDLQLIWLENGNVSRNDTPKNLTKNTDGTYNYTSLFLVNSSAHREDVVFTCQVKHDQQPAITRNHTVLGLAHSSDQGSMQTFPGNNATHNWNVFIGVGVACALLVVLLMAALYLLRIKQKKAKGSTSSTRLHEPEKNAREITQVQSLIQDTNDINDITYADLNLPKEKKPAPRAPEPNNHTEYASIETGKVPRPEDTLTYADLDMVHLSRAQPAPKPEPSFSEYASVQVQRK
Description: as §1

[4] = target: T4, mouse SIRPA_NOD (mouse (NOD), UniProt P97797 32-513)
T4 construct: FLAG-tagged (pFLAG V5-DEST), on 293α cells; also called NOD SCID
T4 chain: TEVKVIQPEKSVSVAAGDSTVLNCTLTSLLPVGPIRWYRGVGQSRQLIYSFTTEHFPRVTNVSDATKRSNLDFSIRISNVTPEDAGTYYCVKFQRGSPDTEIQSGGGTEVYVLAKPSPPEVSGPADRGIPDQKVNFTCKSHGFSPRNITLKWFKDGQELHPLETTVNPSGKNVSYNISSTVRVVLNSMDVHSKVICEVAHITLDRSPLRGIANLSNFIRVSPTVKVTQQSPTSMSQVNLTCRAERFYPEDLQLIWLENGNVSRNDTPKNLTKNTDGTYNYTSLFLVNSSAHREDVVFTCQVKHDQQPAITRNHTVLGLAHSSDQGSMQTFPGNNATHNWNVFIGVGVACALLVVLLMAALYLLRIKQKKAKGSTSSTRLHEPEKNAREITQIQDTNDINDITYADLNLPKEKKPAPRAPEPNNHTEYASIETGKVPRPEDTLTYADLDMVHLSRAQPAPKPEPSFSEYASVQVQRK
Description: as §1

Measured: binding result

B1: rat anti-human SIRPA monoclonal antibody D13 (antibody, V domains shown)
VH: EVQLVESGGGLVQPGRSLKLSCLASGFTFSDYGMIWVRQAPGKGLEWVASISSSSSYIYYADTVKGRFTISRENAKNTLFLHMTSLRSEDTALYYCARRYYGFNYPFDYWGQGVMVTVSS
VL: DTVLTQSPALAVSLGQRVTISCGASKSVRTYMHWYQQKSGQQPKLLIYSASNLEAGVPSRFSGSGSGTDFTLTIDPVEADDIANYYCQQSNEPPYTFGAGTKLELK
notes: Rat IgG1/kappa purified from hybridoma
no binding: all assays above
